The source of these data is the RNAGym collection of RNA variant scans (doi:10.1073/pnas.2313332121).

To fix the notation:
B1: TPR 5TU (parent)
chain: GGAUCUUCUCGAUCUAACAAAAAAGACAAAUCUGCCACAAAGCUUGAGAGCAUCUUCGGAUGCAGAGGCGGCAGCCUUCGGUGGCGCGAUAGCGCCAACGUUCUCAACUAUGACACGCAAAACGCGUGCUCCGUUGAAUGGAGUUUAUCAUG

This sample holds only a part of the variants without activity.

The variants in this data set derive from B1. In words: polymerase ribozyme fitness, log enrichment relative to wild type (log ratio); higher = more active; in vitro selection for triplet polymerase activity. In outline: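 Frozen incubation at −7 °C formed the core of a single, triplicate in vitro selection round applied to PCR-built, transcribed mutant libraries of each subunit of a heterodimeric triplet polymerase ribozyme. Extended constructs were gel-excised, captured with streptavidin beads and amplified by RT-PCR, and input and output libraries were Illumina-sequenced with a filter of ≥10 input reads and ≥1 read per output. Fitness is the logarithm of genotype enrichment relative to wild-type enrichment, with inverse-variance-weighted replicate averaging, and the logarithm is base 2.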
For the variant GGAUCUUCUCGAUCUAACAAAAAAGACAAAUCUGCCACAAACCUUAAGAGCAUCUUCGGAUGCAGAGCCGGCAGCCUUCGGUGGCGCGAUAGCGACAACGUUCUCUAGUAUGACACGCAAAACGCGUGCUCCGUUGAAUGGAGUUUAUCAUG, the “polymerase ribozyme fitness (log ratio)” value was at most -4.2.

With GGAUCUUCUCGAUCUAACAAAAAAGACAAAUCUGCCACAAACCUUGAGAGCAUCUUCGGAUGCAGAGGCGGCAGCCUUCCGUGGCGCGAUAGAGCCAACGUUCACAAGUAUGACACGCAAAACGCGUGCUCCGUUGAAUGGAGUACAUCAUG, the “polymerase ribozyme fitness (log ratio)” value is at most -4.2.

On to GGAUCUUCUCGAUCUAACAAAAAAGACAAAUCUGCCACAAACCAUGAGUGCAUCUUCGGCUGCAGAGGCGGCAGCCUUUGGUGGCGCGAUAGCGCUAACGUUCUCAACUAUGACACGCAAAACGAGUGCUCCGUUGAAUGGGGUUUAUCAUG, for which the “polymerase ribozyme fitness (log ratio)” value is at most -4.2.

As for GGAUCUUCUCGAUCUAACAAAAAAGACAAAUCUGCCACAAACCUUGAGAGCAUCUUCGGAUGCAGAGGCGGCAGCCUUCGGUGUCGCGAUAGCGCCAACGUUCUCAACUAUGACACGCAAAACGCGUGCUCCGUUGAGUGGAGUUGAUCAUG, the “polymerase ribozyme fitness (log ratio)” value is at most -4.2.

As to GGAUCUUCUCGAUCUAACAAAAAAGACAAAUCUGCCACAAACCUUGAGAGCAUCUUCGGAUCCAGAGGCGGCCGCCUUCGGUGGCGCGAUAGCUCCAACGUUCUCAACUAUGACACGGAUAACGCGUGCUCCCUUGAAUGGAGUUUAUCAUG, the “polymerase ribozyme fitness (log ratio)” value was at most -4.2.

As to GGAUCUUCUCGAUCUAACAAAAAAGACAAAUCUGCCACAAACCUUGAGAGCAUCUUCGGAUGCAGAGGCGGCAGCCUUCGGUGGCGCUAUAGCGACAACGUUCUCAACUAUGACACGCAAAACGCGUGCUCCGUUGAAUGGAGUUUAUCAUG, the “polymerase ribozyme fitness (log ratio)” value is at most -4.2.

GGAUCUUCUCGAUCUAACAAAAAAGACAAAUCUGCCACAAACCAUGAGCGCAUCUUCGGAUGCAGAGGCGGCAGCCUUCGGUGGCGCGAUAGCGCCAACGUUCUCAACUAUGACACGCAAAACGCCUGCUACGUUGAAUGGGGUUUUUCAUG: the “polymerase ribozyme fitness (log ratio)” value is at most -4.2.

In the case of GGAUCUUCUCGAUCUAACAAAAAAGACAAAUCUGCCACAAACCUUGAGAGCAUCUUCGGAUUCCGAGGCGACAGCCUUGGGUGGCGCGAUAGCGCCAACGUUCUCAACUAUGACACGCAAAACGCGUGCUCGGUUGAAGGGAGUUGAUCAUG, the “polymerase ribozyme fitness (log ratio)” value is at most -4.2.

As to GGAUCUUCUCGAUCUAACAAAAAAGACAAAUCUGCCACAAACCUUGAGAGCAUCUUCGGAUGCAGAGGCGGCAGCCUUCGGUGGCUCGAUAGCGCCAACGUUCUCAACUAUGACACGCAAAACGCGUGCUCCGUUGAAUGGAGUUUAUCAUG, the “polymerase ribozyme fitness (log ratio)” value is at most -4.2.

Turning to GGAUCUUCUCGAUCUAACAAAAAAGACAAAUCUGCCACAAACCUUGAGAGCAUCUUCGGAUGCAGAGGCGGCAGCCUUCGGUGGCCCGAUAGCGCCAACGUUCUCAACUAUGACACGCAAAACGCGUGCUCCGUUGAAUGGAGUUUAUCAUG, the “polymerase ribozyme fitness (log ratio)” value was at most -4.2.

Regarding GGAUCUUCUCGAUCUAACAAAAAAGACAAAUCUGCCACAAACCUUGAGAGCAUCUUCGGAUGCAGAGUCGGCAGCCUUCGGUGGUGCGAUAGCGCCAACGUUCUCAACUAUGACACGCAAAACGCGUACUCCGUUGAAUGGAGUUUAUCCUG, the “polymerase ribozyme fitness (log ratio)” value was at most -4.2.

In the case of GGAUCUUCUCGAUCUAACAAAAAAGACAAAUCUGCCACAAACCUUGAGAGCAUCUUCGGAUGCAGAGGCGGCAGCCUUCGGUGGCGCGAUAGCGCCAACGUUCUGAACUAUGACACGCAAAACGCGUGCUCCGUUGAAUGGAGUUUAUCAUG, the “polymerase ribozyme fitness (log ratio)” value is at most -4.2.

In the case of GGAUCUUCUCGAUCUAACAAAAAAGACAAAUCUGCCACAAACCAUGAGAGCAUGUUCGGAUGCAGAGGCGGCAGCCUUCGGUGGCGCGAUUGCGCCAAUGUUCUCAACUAUGACACGCAAAACGCGUGCUCCGUUGAAUGGACUCUAUCAUG, the “polymerase ribozyme fitness (log ratio)” value is at most -4.2.

Take GGAUCUUCUCGAUCUAACAAAAAAGACAAAUCUGCCACAAACCUUGAAAGCAUCUUCGGAUGCAGAGGCGGCAGGCUUCGGUGGCGCGAUAGCGCUAACGUUCACAACUAUGACACGCAAAACGCGUGCUCCGUUGAAUGGAGUUUAUCAUG: the “polymerase ribozyme fitness (log ratio)” value was at most -4.2.

As to GGAUCUUCUCGAUCUAACAAAAAAGACAAAUCUGCCACAAACCAUGAGAGCAUCUUCGGAUGCAGAGGCCGCAGCCUUCGGUGGCGCGAUAGCGCUAACGUUCUCAACUAUGACACGCAAAACGCUUGCUCCGUUGAAUGAAGUUUAUCAUG, the “polymerase ribozyme fitness (log ratio)” value was at most -4.2.

On to GGAUCUUCUCGAUCUAACAAAAAAGACAAAUCUGCCACAAACCUUGAGAGCAUCUUCGGAUGCAGAGGCGGCAGCCUUCGGUGGCGCGAUAGCCCCAACGUUCUCAACUACGACACGCAAAACGCGUGCUCCGUUGAAUGGAGUUUAUCAUG, for which the “polymerase ribozyme fitness (log ratio)” value was at most -4.2.

Take GGAUCUUCUCGAUCUAACAAAAAAGACAAAUCUGCCACAAACCUUGAGAGCAUCUUCGGAUGCAGAGGCGGCAGCCUUCGGUGGCGCGAUAGCGCCAAUGUUCUCAACUAUGACACGCAAAACGCGUGCUCCGUUGAAUGGAGUUUAUCAUG: the “polymerase ribozyme fitness (log ratio)” value was at most -4.2.

On to GGAUCUUCUCGAUCUAACAAAAAAGACAAAUCUGCCACAAACCAUGAGAGCGUCUUCGGAUGCAGAGGCUGCAGCCUUCGGUCGCGCGAUAGCGCCAACGUUCUCAACUAUGACACGCAAAACGCGUGCUCCGUUGAAUGGAGUUUAUCAUG, for which the “polymerase ribozyme fitness (log ratio)” value is at most -4.2.

Consider GGAUCUUCUCGAUCUAACAAAAAAGACAAAUCUGCCACAAACCUUGAAAGCAUCUUCGGAUGCAGAGGCGGCAGCCUUCGGUGGCGCGAUAGCGCCAACGUUAUCAACUAUGACACGCAAAACGCGUGCUCCGUUGAAUGGAGCUUAUCAUG, for which the “polymerase ribozyme fitness (log ratio)” value was at most -4.2.
